Columns and labels:
EGFR [1] = biological target: T1, EGFR (UniProt P00533 25-645, limits assumed, biotinylated); assay: direct bind ELISA, C-term VD;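 further: ELISA with antibody or DVD-Ig preparations applied to target antigen-coated plates for 1 h at room temperature, TMB colour development, absorbance read at 450 nm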
T1 construct: ELISA antigen; construct not described

VEGF = biological target: T2, VEGF (UniProt P15692-4 27-191, limits assumed, biotinylated); assay: direct bind ELISA, N-term VD;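 further: antibody or DVD-Ig preparations bound to immobilized target antigen on ELISA plates, 1 h at room temperature, TMB detection read as absorbance at 450 nm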
T2 construct: ELISA antigen

RON = RON (UniProt Q04912 25-571, biotinylated); assay: direct bind ELISA, C-term VD;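 further: ELISA with antibody or DVD-Ig preparations applied to target antigen-coated plates for 1 h at room temperature, TMB colour development, absorbance read at 450 nm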
EGFR [2] = biological target: T1, EGFR; assay: direct bind ELISA, N-term VD;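 further: antibody or DVD-Ig preparations bound to immobilized target antigen on ELISA plates, 1 h at room temperature, TMB detection read as absorbance at 450 nm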

B1: DVD760 (bispecific antibody)
VH: EVQLVESGGGLVQPGGSLRLSCAASGFTINASWIHWVRQAPGKGLEWVGAIYPYSGYTNYADSVKGRFTISADTSKNTAYLQMNSLRAEDTAVYYCARWGHSTSPWAMDYWGQGTLVTVSSASTKGPQVQLQESGPGLVKPSQTLSLTCTVSGYSISSDFAWNWIRQPPGKGLEWMGYISYSGNTRYQPSLKSRITISRDTSKNQFFLKLNSVTAADTATYYCVTAGRGFPYWGQGTLVTVSS
VL: DIQMTQSPSSLSASVGDRVTITCRASQVIRRSLAWYQQKPGKAPKLLIYAASNLASGVPSRFSGSGSGTDFTLTISSLQPEDFATYYCQQSNTSPLTFGQGTKVEIKRTVAAPDIQMTQSPSSMSVSVGDRVTITCHSSQDINSNIGWLQQKPGKSFKGLIYHGTNLDDGVPSRFSGSGSGTDYTLTISSLQPEDFATYYCVQYAQFPWTFGGGTKLEIKR
notes: DVD-Ig; HC S, LC S; variable parts only
EC50 (EGFR [1]): 328 nM | EC50 (VEGF): 0.77 nM

B2: DVD820 (bispecific antibody)
VH: EVQLVESGGGLVQPGGSLRLSCAASGFTISDYWIHWVRQAPGKGLEWVAGITPAGGYTYYADSVKGRFTISADTSKNTAYLQMNSLRAEDTAVYYCARFVFFLPYAMDYWGQGTLVTVSSASTKGPSVFPLAPQVQLQESGPGLVKPSQTLSLTCTVSGYSISSDFAWNWIRQPPGKGLEWMGYISYSGNTRYQPSLKSRITISRDTSKNQFFLKLNSVTAADTATYYCVTAGRGFPYWGQGTLVTVSS
VL: DIQMTQSPSSLSASVGDRVTITCRASQDVSTAVAWYQQKPGKAPKLLIYSASFLYSGVPSRFSGSGSGTDFTLTISSLQPEDFATYYCQQSYTTPPTFGQGTKVEIKRTVAAPDIQMTQSPSSMSVSVGDRVTITCHSSQDINSNIGWLQQKPGKSFKGLIYHGTNLDDGVPSRFSGSGSGTDYTLTISSLQPEDFATYYCVQYAQFPWTFGGGTKLEIKR
notes: DVD-Ig; HC L, LC S; variable parts only
EC50 (EGFR [1]): 107 nM | EC50 (VEGF): 4.08 nM

B3: DVD758 (bispecific antibody)
VH: EVQLVESGGGLVQPGGSLRLSCAASGFTISDYWIHWVRQAPGKGLEWVAGITPAGGYTYYADSVKGRFTISADTSKNTAYLQMNSLRAEDTAVYYCARFVFFLPYAMDYWGQGTLVTVSSASTKGPQVQLQESGPGLVKPSQTLSLTCTVSGYSISSDFAWNWIRQPPGKGLEWMGYISYSGNTRYQPSLKSRITISRDTSKNQFFLKLNSVTAADTATYYCVTAGRGFPYWGQGTLVTVSS
VL: DIQMTQSPSSLSASVGDRVTITCRASQDVSTAVAWYQQKPGKAPKLLIYSASFLYSGVPSRFSGSGSGTDFTLTISSLQPEDFATYYCQQSYTTPPTFGQGTKVEIKRTVAAPDIQMTQSPSSMSVSVGDRVTITCHSSQDINSNIGWLQQKPGKSFKGLIYHGTNLDDGVPSRFSGSGSGTDYTLTISSLQPEDFATYYCVQYAQFPWTFGGGTKLEIKR
notes: as for B1
EC50 (EGFR [1]): 562 nM | EC50 (VEGF): 5.37 nM

B4: DVD840 (bispecific antibody)
VH: EVQLVESGGGLVQPGGSLRLSCAASGYTFTNYGMNWVRQAPGKGLEWVGWINTYTGEPTYAADFKRRFTFSLDTSKSTAYLQMNSLRAEDTAVYYCAKYPHYYGSSHWYFDVWGQGTLVTVSSASTKGPQVQLQESGPGLVKPSQTLSLTCTVSGYSISSDFAWNWIRQPPGKGLEWMGYISYSGNTRYQPSLKSRITISRDTSKNQFFLKLNSVTAADTATYYCVTAGRGFPYWGQGTLVTVSS
VL: DIQMTQSPSSLSASVGDRVTITCSASQDISNYLNWYQQKPGKAPKVLIYFTSSLHSGVPSRFSGSGSGTDFTLTISSLQPEDFATYYCQQYSTVPWTFGQGTKVEIKRTVAAPSVFIFPPDIQMTQSPSSMSVSVGDRVTITCHSSQDINSNIGWLQQKPGKSFKGLIYHGTNLDDGVPSRFSGSGSGTDYTLTISSLQPEDFATYYCVQYAQFPWTFGGGTKLEIKR
notes: DVD-Ig; HC S, LC L; variable parts only
EC50 (EGFR [1]): 69.8 nM | EC50 (VEGF): 0.18 nM

B5: DVD850 (bispecific antibody)
VH: EVQLVESGGGLVQPGGSLRLSCAASGFTISDYWIHWVRQAPGKGLEWVAGITPAGGYTYYADSVKGRFTISADTSKNTAYLQMNSLRAEDTAVYYCARFVFFLPYAMDYWGQGTLVTVSSASTKGPQVQLQESGPGLVKPSQTLSLTCTVSGYSISSDFAWNWIRQPPGKGLEWMGYISYSGNTRYQPSLKSRITISRDTSKNQFFLKLNSVTAADTATYYCVTAGRGFPYWGQGTLVTVSS
VL: DIQMTQSPSSLSASVGDRVTITCRASQDVSTAVAWYQQKPGKAPKLLIYSASFLYSGVPSRFSGSGSGTDFTLTISSLQPEDFATYYCQQSYTTPPTFGQGTKVEIKRTVAAPSVFIFPPDIQMTQSPSSMSVSVGDRVTITCHSSQDINSNIGWLQQKPGKSFKGLIYHGTNLDDGVPSRFSGSGSGTDYTLTISSLQPEDFATYYCVQYAQFPWTFGGGTKLEIKR
notes: as for B4
EC50 (EGFR [1]): 71.8 nM | EC50 (VEGF): 10.2 nM

B6: DVD767 (bispecific antibody)
VH: QVQLQESGPGLVKPSQTLSLTCTVSGYSISSDFAWNWIRQPPGKGLEWMGYISYSGNTRYQPSLKSRITISRDTSKNQFFLKLNSVTAADTATYYCVTAGRGFPYWGQGTLVTVSSASTKGPSVFPLAPEVQLVQSGGGLVKPGGSLRLSCAASGFTFSSYAMHWVRQAPGKGLEWVAVISYDGSNKYYADSVKGRFTISRDNSKNTLYLQMNSLRAEDTAVYYCARFSGWPNNYYYYGMDVWGQGTTVTVSS
VL: DIQMTQSPSSMSVSVGDRVTITCHSSQDINSNIGWLQQKPGKSFKGLIYHGTNLDDGVPSRFSGSGSGTDYTLTISSLQPEDFATYYCVQYAQFPWTFGGGTKLEIKRTVAAPSVFIFPPDVVMTQSPLSLPVTPGEPASISCRSSQSLLHSNGFNYVDWYLQKPGQSPHLLIYFGSYRASGVPDRFSGSGSGTDFTLKISRVEAEDVGVYYCMQALQTPPWTFGQGTKVEIRR
notes: DVD-Ig; HC L, LC L; variable parts only
EC50 (RON): 0.64 nM | EC50 (EGFR [2]): 5.97 nM

B7: DVD810 (bispecific antibody)
VH: EVQLVESGGGLVQPGGSLRLSCAASGYTFTNYGMNWVRQAPGKGLEWVGWINTYTGEPTYAADFKRRFTFSLDTSKSTAYLQMNSLRAEDTAVYYCAKYPHYYGSSHWYFDVWGQGTLVTVSSASTKGPSVFPLAPQVQLQESGPGLVKPSQTLSLTCTVSGYSISSDFAWNWIRQPPGKGLEWMGYISYSGNTRYQPSLKSRITISRDTSKNQFFLKLNSVTAADTATYYCVTAGRGFPYWGQGTLVTVSS
VL: DIQMTQSPSSLSASVGDRVTITCSASQDISNYLNWYQQKPGKAPKVLIYFTSSLHSGVPSRFSGSGSGTDFTLTISSLQPEDFATYYCQQYSTVPWTFGQGTKVEIKRTVAAPDIQMTQSPSSMSVSVGDRVTITCHSSQDINSNIGWLQQKPGKSFKGLIYHGTNLDDGVPSRFSGSGSGTDYTLTISSLQPEDFATYYCVQYAQFPWTFGGGTKLEIKR
notes: as for B2
EC50 (EGFR [1]): 228 nM | EC50 (VEGF): 0.33 nM

B8: DVD338 (bispecific antibody)
VH: EVQLVESGGGLVQPGGSLRLSCAASGYTFTNYGMNWVRQAPGKGLEWVGWINTYTGEPTYAADFKRRFTFSLDTSKSTAYLQMNSLRAEDTAVYYCAKYPHYYGSSHWYFDVWGQGTLVTVSSASTKGPQVQLQESGPGLVKPSQTLSLTCTVSGYSISSDFAWNWIRQPPGKGLEWMGYISYSGNTRYQPSLKSRITISRDTSKNQFFLKLNSVTAADTATYYCVTAGRGFPYWGQGTLVTVSS
VL: DIQMTQSPSSLSASVGDRVTITCSASQDISNYLNWYQQKPGKAPKVLIYFTSSLHSGVPSRFSGSGSGTDFTLTISSLQPEDFATYYCQQYSTVPWTFGQGTKVEIKRTVAAPDIQMTQSPSSMSVSVGDRVTITCHSSQDINSNIGWLQQKPGKSFKGLIYHGTNLDDGVPSRFSGSGSGTDYTLTISSLQPEDFATYYCVQYAQFPWTFGGGTKLEIKR
notes: as for B1
EC50 (EGFR [1]): 206 nM | EC50 (VEGF): 0.24 nM

B9: DVD792 (bispecific antibody)
VH: EVQLVESGGGLVQPGGSLRLSCAASGFTINASWIHWVRQAPGKGLEWVGAIYPYSGYTNYADSVKGRFTISADTSKNTAYLQMNSLRAEDTAVYYCARWGHSTSPWAMDYWGQGTLVTVSSASTKGPSVFPLAPQVQLQESGPGLVKPSQTLSLTCTVSGYSISSDFAWNWIRQPPGKGLEWMGYISYSGNTRYQPSLKSRITISRDTSKNQFFLKLNSVTAADTATYYCVTAGRGFPYWGQGTLVTVSS
VL: DIQMTQSPSSLSASVGDRVTITCRASQVIRRSLAWYQQKPGKAPKLLIYAASNLASGVPSRFSGSGSGTDFTLTISSLQPEDFATYYCQQSNTSPLTFGQGTKVEIKRTVAAPSVFIFPPDIQMTQSPSSMSVSVGDRVTITCHSSQDINSNIGWLQQKPGKSFKGLIYHGTNLDDGVPSRFSGSGSGTDYTLTISSLQPEDFATYYCVQYAQFPWTFGGGTKLEIKR
notes: as for B6
EC50 (EGFR [1]): 48.6 nM | EC50 (VEGF): 0.82 nM

B10: DVD852 (bispecific antibody)
VH: EVQLVESGGGLVQPGGSLRLSCAASGFTINASWIHWVRQAPGKGLEWVGAIYPYSGYTNYADSVKGRFTISADTSKNTAYLQMNSLRAEDTAVYYCARWGHSTSPWAMDYWGQGTLVTVSSASTKGPQVQLQESGPGLVKPSQTLSLTCTVSGYSISSDFAWNWIRQPPGKGLEWMGYISYSGNTRYQPSLKSRITISRDTSKNQFFLKLNSVTAADTATYYCVTAGRGFPYWGQGTLVTVSS
VL: DIQMTQSPSSLSASVGDRVTITCRASQVIRRSLAWYQQKPGKAPKLLIYAASNLASGVPSRFSGSGSGTDFTLTISSLQPEDFATYYCQQSNTSPLTFGQGTKVEIKRTVAAPSVFIFPPDIQMTQSPSSMSVSVGDRVTITCHSSQDINSNIGWLQQKPGKSFKGLIYHGTNLDDGVPSRFSGSGSGTDYTLTISSLQPEDFATYYCVQYAQFPWTFGGGTKLEIKR
notes: as for B4
EC50 (EGFR [1]): 68.1 nM | EC50 (VEGF): 0.78 nM

B11: DVD822 (bispecific antibody)
VH: EVQLVESGGGLVQPGGSLRLSCAASGFTINASWIHWVRQAPGKGLEWVGAIYPYSGYTNYADSVKGRFTISADTSKNTAYLQMNSLRAEDTAVYYCARWGHSTSPWAMDYWGQGTLVTVSSASTKGPSVFPLAPQVQLQESGPGLVKPSQTLSLTCTVSGYSISSDFAWNWIRQPPGKGLEWMGYISYSGNTRYQPSLKSRITISRDTSKNQFFLKLNSVTAADTATYYCVTAGRGFPYWGQGTLVTVSS
VL: DIQMTQSPSSLSASVGDRVTITCRASQVIRRSLAWYQQKPGKAPKLLIYAASNLASGVPSRFSGSGSGTDFTLTISSLQPEDFATYYCQQSNTSPLTFGQGTKVEIKRTVAAPDIQMTQSPSSMSVSVGDRVTITCHSSQDINSNIGWLQQKPGKSFKGLIYHGTNLDDGVPSRFSGSGSGTDYTLTISSLQPEDFATYYCVQYAQFPWTFGGGTKLEIKR
notes: as for B2
EC50 (EGFR [1]): 90 nM | EC50 (VEGF): 0.72 nM

Source: patent publication US20110263827A1 (AbbVie / Abbott, published 2011)
